In patent US20150344570A1 (published 2015):

T1: human FcγRIIb extracellular domain with C-terminal His tag (human, UniProt P31994 43-217)
T1 construct: extracellular domain; also called FcgRIIb; 2b; not shown: His tag attached to the C terminus
T1 sequence (looked up): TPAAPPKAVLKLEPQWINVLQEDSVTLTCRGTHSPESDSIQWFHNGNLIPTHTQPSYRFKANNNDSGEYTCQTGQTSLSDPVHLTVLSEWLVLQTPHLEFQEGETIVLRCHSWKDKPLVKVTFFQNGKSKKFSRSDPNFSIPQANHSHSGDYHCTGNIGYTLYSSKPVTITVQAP

B1: GpH7-A5/GpH7-B3 variant L328_15Y/GpL16-k0 (He Ab) (antibody, human IgG1, kappa)
heavy 1: not shown
heavy 2: not shown
light: DIVMTQSPLSLPVTPGEPASISCQASESLVHSNRNTYLHWYLQKPGQSPQLLIYKVSNRFSGVPDRFSGSGSGTDFTLKISRVEAEDVGVYYCSQNTHVPPTFGQGTKVEIERTVAAPSVFIFPPSDEQLKSGTASVVCLLNNFYPREAKVQWKVDNALQSGNSQESVTEQDSKDSTYSLSSTLTLSKADYEKHKVYACEVTHQGLSSPVTKSFNRGEC
notes: Anti-glypican-3 IgG1; mutation only in the GpH7-B3-derived H chain; also called L328Y heterodimerized antibody
B2: GpH7-A5/GpH7-B3 variant L328_19Q/GpL16-k0 (He Ab) (antibody, human IgG1, kappa)
heavy 1: not shown
heavy 2: not shown
light: B1 light
notes: Anti-glypican-3 IgG1; mutation only in the GpH7-B3-derived H chain; also called L328Q heterodimerized antibody
B3: GpH7-A5/GpH7-B3 variant P238_08L/GpL16-k0 (He Ab) (antibody, human IgG1, kappa)
heavy 1: not shown
heavy 2: not shown
light: B1 light
notes: Anti-glypican-3 IgG1; mutation only in the GpH7-B3-derived H chain; also called P238L heterodimerized antibody
B4: GpH7-A5/GpH7-B3 variant P271_01G/GpL16-k0 (He Ab) (antibody, human IgG1, kappa)
heavy 1: not shown
heavy 2: not shown
light: B1 light
notes: Anti-glypican-3 IgG1; mutation only in the GpH7-B3-derived H chain; also called P271G heterodimerized antibody
B5: GpH7-A5/GpH7-B3 variant P271_08L/GpL16-k0 (He Ab) (antibody, human IgG1, kappa)
heavy 1: not shown
heavy 2: not shown
light: B1 light
notes: Anti-glypican-3 IgG1; mutation only in the GpH7-B3-derived H chain; also called P271L heterodimerized antibody
B6: GpH7-A5/GpH7-B3 variant P331_04F/GpL16-k0 (He Ab) (antibody, human IgG1, kappa)
heavy 1: not shown
heavy 2: not shown
light: B1 light
notes: Anti-glypican-3 IgG1; mutation only in the GpH7-B3-derived H chain; also called P331F heterodimerized antibody
B7: GpH7-A5/GpH7-B3 variant S239_01G/GpL16-k0 (He Ab) (antibody, human IgG1, kappa)
heavy 1: not shown
heavy 2: not shown
light: B1 light
notes: Anti-glypican-3 IgG1; mutation only in the GpH7-B3-derived H chain; also called S239G heterodimerized antibody
B8: GpH7-A5/GpH7-B3 variant S239_07I/GpL16-k0 (He Ab) (antibody, human IgG1, kappa)
heavy 1: not shown
heavy 2: not shown
light: B1 light
notes: Anti-glypican-3 IgG1; mutation only in the GpH7-B3-derived H chain; also called S239I heterodimerized antibody
B9: GpH7-A5/GpH7-B3 variant S239_08L/GpL16-k0 (He Ab) (antibody, human IgG1, kappa)
heavy 1: not shown
heavy 2: not shown
light: B1 light
notes: Anti-glypican-3 IgG1; mutation only in the GpH7-B3-derived H chain; also called S239L heterodimerized antibody
B10: GpH7-A5/GpH7-B3 variant S239_09D/GpL16-k0 (He Ab) (antibody, human IgG1, kappa)
heavy 1: not shown
heavy 2: not shown
light: B1 light
notes: Anti-glypican-3 IgG1; mutation only in the GpH7-B3-derived H chain; also called S239D heterodimerized antibody
B11: GpH7-A5/GpH7-B3 variant S239_18N/GpL16-k0 (He Ab) (antibody, human IgG1, kappa)
heavy 1: not shown
heavy 2: not shown
light: B1 light
notes: Anti-glypican-3 IgG1; mutation only in the GpH7-B3-derived H chain; also called S239N heterodimerized antibody
B12: GpH7-A5/GpH7-B3 variant S267_02A/GpL16-k0 (He Ab) (antibody, human IgG1, kappa)
heavy 1: not shown
heavy 2: not shown
light: B1 light
notes: Anti-glypican-3 IgG1; mutation only in the GpH7-B3-derived H chain; also called S267A heterodimerized antibody
B13: GpH7-A5/GpH7-B3 variant S267_03V/GpL16-k0 (He Ab) (antibody, human IgG1, kappa)
heavy 1: not shown
heavy 2: not shown
light: B1 light
notes: Anti-glypican-3 IgG1; mutation only in the GpH7-B3-derived H chain; also called S267V heterodimerized antibody
B14: GpH7-A5/GpH7-B3 variant S267_07I/GpL16-k0 (He Ab) (antibody, human IgG1, kappa)
heavy 1: not shown
heavy 2: not shown
light: B1 light
notes: Anti-glypican-3 IgG1; mutation only in the GpH7-B3-derived H chain; also called S267I heterodimerized antibody
B15: GpH7-A5/GpH7-B3 variant S267_08L/GpL16-k0 (He Ab) (antibody, human IgG1, kappa)
heavy 1: not shown
heavy 2: not shown
light: B1 light
notes: Anti-glypican-3 IgG1; mutation only in the GpH7-B3-derived H chain; also called S267L heterodimerized antibody
B16: GpH7-A5/GpH7-B3 variant S267_09D/GpL16-k0 (He Ab) (antibody, human IgG1, kappa)
heavy 1: not shown
heavy 2: not shown
light: B1 light
notes: Anti-glypican-3 IgG1; mutation only in the GpH7-B3-derived H chain; also called S267D heterodimerized antibody
B17: GpH7-A5/GpH7-B3 variant S267_10E/GpL16-k0 (He Ab) (antibody, human IgG1, kappa)
heavy 1: not shown
heavy 2: not shown
light: B1 light
notes: Anti-glypican-3 IgG1; mutation only in the GpH7-B3-derived H chain; also called S267E heterodimerized antibody
B18: GpH7-A5/GpH7-B3 variant S267_14T/GpL16-k0 (He Ab) (antibody, human IgG1, kappa)
heavy 1: not shown
heavy 2: not shown
light: B1 light
notes: Anti-glypican-3 IgG1; mutation only in the GpH7-B3-derived H chain; also called S267T heterodimerized antibody
B19: GpH7-A5/GpH7-B3 variant S298_08L/GpL16-k0 (He Ab) (antibody, human IgG1, kappa)
heavy 1: not shown
heavy 2: not shown
light: B1 light
notes: Anti-glypican-3 IgG1; mutation only in the GpH7-B3-derived H chain; also called S298L heterodimerized antibody
B20: GpH7-A5/GpH7-B3 variant S337_09D/GpL16-k0 (He Ab) (antibody, human IgG1, kappa)
heavy 1: not shown
heavy 2: not shown
light: B1 light
notes: Anti-glypican-3 IgG1; mutation only in the GpH7-B3-derived H chain; also called S337D heterodimerized antibody
B21: GpH7-A5/GpH7-B3 variant S337_10E/GpL16-k0 (He Ab) (antibody, human IgG1, kappa)
heavy 1: not shown
heavy 2: not shown
light: B1 light
notes: Anti-glypican-3 IgG1; mutation only in the GpH7-B3-derived H chain; also called S337E heterodimerized antibody
B22: GpH7-A5/GpH7-B3 variant S337_14T/GpL16-k0 (He Ab) (antibody, human IgG1, kappa)
heavy 1: not shown
heavy 2: not shown
light: B1 light
notes: Anti-glypican-3 IgG1; mutation only in the GpH7-B3-derived H chain; also called S337T heterodimerized antibody
B23: GpH7-A5/GpH7-B3 variant T335_04F/GpL16-k0 (He Ab) (antibody, human IgG1, kappa)
heavy 1: not shown
heavy 2: not shown
light: B1 light
notes: Anti-glypican-3 IgG1; mutation only in the GpH7-B3-derived H chain; also called T335F heterodimerized antibody
B24: GpH7-A5/GpH7-B3 variant T335_08L/GpL16-k0 (He Ab) (antibody, human IgG1, kappa)
heavy 1: not shown
heavy 2: not shown
light: B1 light
notes: Anti-glypican-3 IgG1; mutation only in the GpH7-B3-derived H chain; also called T335L heterodimerized antibody
B25: GpH7-A5/GpH7-B3 variant T335_09D/GpL16-k0 (He Ab) (antibody, human IgG1, kappa)
heavy 1: not shown
heavy 2: not shown
light: B1 light
notes: Anti-glypican-3 IgG1; mutation only in the GpH7-B3-derived H chain; also called T335D heterodimerized antibody
B26: GpH7-A5/GpH7-B3 variant Y300_19Q/GpL16-k0 (He Ab) (antibody, human IgG1, kappa)
heavy 1: not shown
heavy 2: not shown
light: B1 light
notes: Anti-glypican-3 IgG1; mutation only in the GpH7-B3-derived H chain; also called Y300Q heterodimerized antibody

target: T1, human FcγRIIb extracellular domain with …; assay: SPR (Biacore T100), antibody captured on antigen peptide chip, FcγRIIb as analyte; relative binding
Procedure: Analysis of interaction between objective antibody and the FcγR was carried out using Biacore T100 (GE Healthcare). HBS-EP+ (GE Healthcare) was used as the running buffer, and the measurement temperature was set to 25° C. Chips produced by immobilizing the antigen peptide by the amine coupling method to a Series S Sencor Chip CM5 (GE Healthcare), or alternatively, chips produced by allowing preliminarily biotinylated antigen peptides to interact with and immobilize onto a Series S Sensor Chip SA (certified) (GE Healthcare) were used. Antibodies of interest were captured onto an antigen peptide-immobilized chip, and allowed to interact to each FcγR diluted with running buffer. To regenerate and repeatedly use the chip, the antibodies captured on the chip were washed off by reacting 10 mM glycine-HCl, pH 1.5.

He/Con_2b | Binder
193 % of control GpH7-A5/GpH7-B3/GpL16-k0 (=100) | B1
105 % of control GpH7-A5/GpH7-B3/GpL16-k0 (=100) | B2
204 % of control GpH7-A5/GpH7-B3/GpL16-k0 (=100) | B3
193 % of control GpH7-A5/GpH7-B3/GpL16-k0 (=100) | B4
103 % of control GpH7-A5/GpH7-B3/GpL16-k0 (=100) | B5
110 % of control GpH7-A5/GpH7-B3/GpL16-k0 (=100) | B6
144 % of control GpH7-A5/GpH7-B3/GpL16-k0 (=100) | B7
107 % of control GpH7-A5/GpH7-B3/GpL16-k0 (=100) | B8
140 % of control GpH7-A5/GpH7-B3/GpL16-k0 (=100) | B9
206 % of control GpH7-A5/GpH7-B3/GpL16-k0 (=100) | B10
119 % of control GpH7-A5/GpH7-B3/GpL16-k0 (=100) | B11
243 % of control GpH7-A5/GpH7-B3/GpL16-k0 (=100) | B12
192 % of control GpH7-A5/GpH7-B3/GpL16-k0 (=100) | B13
192 % of control GpH7-A5/GpH7-B3/GpL16-k0 (=100) | B14
109 % of control GpH7-A5/GpH7-B3/GpL16-k0 (=100) | B15
310 % of control GpH7-A5/GpH7-B3/GpL16-k0 (=100) | B16
379 % of control GpH7-A5/GpH7-B3/GpL16-k0 (=100) | B17
104 % of control GpH7-A5/GpH7-B3/GpL16-k0 (=100) | B18
108 % of control GpH7-A5/GpH7-B3/GpL16-k0 (=100) | B19
114 % of control GpH7-A5/GpH7-B3/GpL16-k0 (=100) | B20
107 % of control GpH7-A5/GpH7-B3/GpL16-k0 (=100) | B21
105 % of control GpH7-A5/GpH7-B3/GpL16-k0 (=100) | B22
103 % of control GpH7-A5/GpH7-B3/GpL16-k0 (=100) | B23
104 % of control GpH7-A5/GpH7-B3/GpL16-k0 (=100) | B24
108 % of control GpH7-A5/GpH7-B3/GpL16-k0 (=100) | B25
108 % of control GpH7-A5/GpH7-B3/GpL16-k0 (=100) | B26
